Source: IntAct's records for PubMed 17377532

B1: Forkhead box protein P3 (Mus musculus), Q99JB6 (parent)
chain: MPNPRPAKPMAPSLALGPSPGVLPSWKTAPKGSELLGTRGSGGPFQGRDLRSGAHTSSSLNPLPPSQLQLPTVPLVMVAPSGARLGPSPHLQALLQDRPHFMHQLSTVDAHAQTPVLQVRPLDNPAMISLPPPSAATGVFSLKARPGLPPGINVASLEWVSREPALLCTFPRSGTPRKDSNLLAAPQGSYPLLANGVCKWPGCEKVFEEPEEFLKHCQADHLLDEKGKAQCLLQREVVQSLEQQLELEKEKLGAMQAHLAGKMALAKAPSVASMDKSSCCIVATSTQGSVLPAWSAPREAPDGGLFAVRRHLWGSHGNSSFPEFFHNMDYFKYHNMRPPFTYATLIRWAILEAPERQRTLNEIYHWFTRMFAYFRNHPATWKNAIRHNLSLHKCFVRVESEKGAVWTVDEFEFRKKRSQRPNKCSNPCP

Variants of: B1
Conditions: with runx1_mouse Runx1, Q03347
runx1_mouse Runx1, Q03347, sequence (Q03347 whole entry): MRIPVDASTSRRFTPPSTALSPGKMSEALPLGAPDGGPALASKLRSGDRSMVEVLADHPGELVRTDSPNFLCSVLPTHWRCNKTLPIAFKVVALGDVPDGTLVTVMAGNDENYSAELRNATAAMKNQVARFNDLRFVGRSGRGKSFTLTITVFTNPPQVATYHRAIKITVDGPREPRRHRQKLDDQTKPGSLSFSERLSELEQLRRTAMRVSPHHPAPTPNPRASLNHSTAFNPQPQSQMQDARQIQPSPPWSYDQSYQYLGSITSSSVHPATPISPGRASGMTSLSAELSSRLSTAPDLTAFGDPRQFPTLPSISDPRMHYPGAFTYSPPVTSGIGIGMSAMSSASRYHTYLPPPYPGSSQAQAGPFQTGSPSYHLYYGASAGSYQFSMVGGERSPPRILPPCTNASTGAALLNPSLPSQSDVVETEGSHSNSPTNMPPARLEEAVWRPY

| Variant | effect of a mutation on the interaction |
| --- | --- |
| D329V;Y330H | decreasing interaction strength |
| D329V;Y330H;K332L | disrupting interaction strength |
